This is an account of results in patent US20190127432A1.

The target in the experiment is FSH receptor on CHO-FSHR cells (Homo sapiens (Human)) (UniProt P23945). The experiment in a line: cell-based or functional assay.
Sequence of UniProt P23945 (P23945 18-695 limits assumed, form in doubt): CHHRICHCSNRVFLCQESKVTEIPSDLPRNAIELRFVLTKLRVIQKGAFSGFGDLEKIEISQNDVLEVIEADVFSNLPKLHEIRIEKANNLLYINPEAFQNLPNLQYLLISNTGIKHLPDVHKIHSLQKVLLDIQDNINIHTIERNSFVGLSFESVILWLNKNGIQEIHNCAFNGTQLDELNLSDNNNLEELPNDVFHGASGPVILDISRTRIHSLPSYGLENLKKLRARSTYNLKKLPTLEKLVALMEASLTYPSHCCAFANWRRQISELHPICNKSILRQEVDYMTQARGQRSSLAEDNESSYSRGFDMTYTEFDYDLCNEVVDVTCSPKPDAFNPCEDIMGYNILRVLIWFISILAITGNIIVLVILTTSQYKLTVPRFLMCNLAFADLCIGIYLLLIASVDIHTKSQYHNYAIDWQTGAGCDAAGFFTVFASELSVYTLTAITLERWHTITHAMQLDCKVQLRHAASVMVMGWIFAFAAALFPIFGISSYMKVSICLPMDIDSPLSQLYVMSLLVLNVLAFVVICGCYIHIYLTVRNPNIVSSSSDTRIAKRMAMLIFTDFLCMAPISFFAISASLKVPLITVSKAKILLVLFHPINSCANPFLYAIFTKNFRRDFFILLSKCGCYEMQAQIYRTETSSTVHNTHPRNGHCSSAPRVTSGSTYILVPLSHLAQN

With Elonva (ligand), the EC50 (ng/ml), cAMP stimulation in CHO-FSHR cells was found to be 4.15 ng/mL; the Potency difference, cAMP stimulation in CHO-FSHR cells came to 1.3 fold; the Vmax (%), cAMP stimulation in CHO-FSHR cells is 99.3%; the Vmax (pmol/ml), cAMP stimulation in CHO-FSHR cells is 293 pmol/mL.
